Consider two substances from article PMC10665946.

In test [1] the target is V113A LukB CC8 LukAB (S. aureus). The experiment in a line: negative stain electron microscopy; 0.03 mg/ml protein in TBS + 40% v/v MPD, RT 45 min; uranyl formate stain; 2D class averages.
Test [2] shares this target. In words: negative stain electron microscopy; 0.03 mg/ml protein in TBS + 20% v/v MPD, RT 45 min; uranyl formate stain; 2D class averages.
The target of test [3] is WT CC8 LukAB (leukocidin A/leukocidin B) heterodimer (S. aureus). The experiment in a line: negative stain electron microscopy; 0.03 mg/ml protein in TBS + 40% v/v MPD, RT 45 min; uranyl formate stain; 2D class averages.

As a reminder, the stoichiometry N is the number of molecules, sites or subunits per partner or assembly.

For V113A LukB CC8 LukAB (complex), the stoichiometry N in test [1] and in test [2] was 8 in each case.

In the case of “WT CC8 LukAB (leukocidin A/leukocidin B) heterodimer (complex)”, the stoichiometry N in test [3] is 8.
